Measurements from PMC4617978.
Several values for one entry are separate records, joined by “and”; a condition that tells them apart may be missing. Equal values may be shown once.

Columns and labels:
[1] = target: His6-tagged BAKΔTM (BAK lacking its transmembrane domain, residues 1–186) (human) (UniProt Q16611); assay: cross-linking
[2] = target: BCLXLΔTM (cleaved by thrombin from GST-BCLXLΔTM); assay: SPR
[3] = target: MCL1ΔTM (cleaved by thrombin from GST-MCL1ΔTM); assay: SPR

In the case of “His6-tagged BAKΔTM (BAK lacking its transmembrane domain, residues 1–186) (from UniProt Q16611 1-186) (domain or fragment)”, the stoichiometry N [1] is reported as 2 and 3.

B1: His6-tagged BAKΔTM (BAK lacking its transmembrane domain, residues 1–186) (domain or fragment)
chain: MASGQGPGPPRQECGEPALPSASEEQVAQDTEEVFRSYVFYRHQQEQEAEGVAAPADPEMVTLPLQPSSTMGQVGRQLAIIGDDINRRYDSEFQTMLQHLQPTAENAYEYFTKIATSLFESGINWGRVVALLGFGYRLALHVYQHGLTGFLGQVTRFVVDFMLHHCIARWIAQRGGWVAALNLGNG
With B1 the fold less tight binding than BAK BH3 peptide [2] was 100 fold and the fold less tight binding than BAK BH3 peptide [3] was 100 fold.
